The target in assay [1] is T1, FcγRIIIa V158 (recombinantly expressed, monomeric) (human, UniProt P08637 17-208).
T1 construct: also called biotinylated FcγRIIIa V158 tetramers
As to the kind of experiment: BLI (Octet), mAb on HLA-A2 antigen tips, monomeric FcγRIIIa V158; dissociation rate printed as 'KD'; the value is the MEAN over afucosylated IgG1 and IgG3.
Description: (§1) Antibody-Receptor dissociation kinetics measurement by Biolayer Interferometry (BLI). […] Streptavidin tips were first coated with biotinylated HLA-A2 antigens. After establishing a signal baseline, the tips were loaded with HLA-A2-specific antibodies, dipped into the buffer for baseline, and then finally dipped into a solution of recombinantly expressed FcγRIIIa V158 monomers. Following receptor association, tips were dipped into a buffer, which allowed receptor dissociation. The dissociation rate of FcγR was defined relatively to a reference tip which was not dipped into the receptor.
(§2) High Precision Streptavidin 2.0 (SAX2) biosensor tips (Sartorius) were used to determine the kinetics of HLA-A2-specific IgG binding to human FcγRIIIa and FcγRI by biolayer interferometry (BLI) on an Octet (Forte Bio) instrument. Streptavidin (SA) biosensor tips were first loaded with HLA-A2 antigen, followed by HLA-A2 antibody, and finally dipped into FcγR to study the antibody-receptor kinetics. Biosensors were equilibrated with 0.05% Tween-PBS for 60 s, loaded with 0.25 μg/mL biotinylated HLA-A2 antigen (in 0.05% Tween-PBS) until they reached the threshold of 1 nm, and then dipped into 0.05% Tween-PBS to reach baseline for 60 s. […]

In the next assay the target is T2, FcγRI (human, UniProt P12314 16-288).
T2 construct: also called human FcγRI
The experiment in a line: BLI (Octet), mAb on HLA-A2 antigen tips, 292 nM FcγRI in solution.

Assay [2] addresses T1, FcγRIIIa V158 (recombinantly expressed, …). As to the kind of experiment: BLI (Octet), mAb on HLA-A2 antigen tips, monomeric FcγRIIIa V158; dissociation rate printed as 'KD'; the value is the MEAN over unmodified IgG1 and IgG3. (In general: BLI is a label-free optical method that tracks binding on a fibre tip over time.)
Description: as §1, §2

We go through four molecules from patent US20250172568A1 (TRUSTEES OF DARTMOUTH COLLEGE, published 2025).

A word on the koff: it is the rate constant with which the complex falls apart.

T1 sequence (P08637 17-208 F176V limits assumed): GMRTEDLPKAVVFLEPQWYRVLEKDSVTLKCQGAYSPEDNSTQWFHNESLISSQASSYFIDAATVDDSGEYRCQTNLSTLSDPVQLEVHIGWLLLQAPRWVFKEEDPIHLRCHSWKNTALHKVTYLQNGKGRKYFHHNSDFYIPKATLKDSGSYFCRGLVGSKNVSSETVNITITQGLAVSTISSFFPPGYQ
T2 sequence (P12314 16-288 limits assumed): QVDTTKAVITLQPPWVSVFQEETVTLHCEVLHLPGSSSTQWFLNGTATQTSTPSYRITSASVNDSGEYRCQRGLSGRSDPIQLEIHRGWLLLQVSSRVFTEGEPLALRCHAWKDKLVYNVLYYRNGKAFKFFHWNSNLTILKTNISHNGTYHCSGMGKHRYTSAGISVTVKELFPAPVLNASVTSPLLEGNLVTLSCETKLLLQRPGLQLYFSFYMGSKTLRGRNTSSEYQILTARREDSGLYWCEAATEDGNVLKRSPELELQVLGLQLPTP

B1: afucosylated BB7.2 IgG1 (HLA-A2-specific chimeric mAb) (antibody)
heavy: not shown
light: DVLMTQTPLSLPVSLGDQVSISCRSSQSIVHSNGNTYLEWYLQKPGQSPKLLIYKVSNRFSGVPDRFSGSGSGTDFTLKISRVEAEDLGVYYCFQGSHVPRTFGGGTKLEIKRADAAPTVSIFPPSSEQLTSGGASVVCFLNNFYPKDINVKWKIDGSERQNGVLNSWTDQDSKDSTYSMSSTLTLTKDEYERHNSYTCEATHKTSTSPIVKSFNRNEC
notes: also called afucosylated IgG1; afucosylated HLA-A2 mAb
For the molecule B1, in assay [1], the off-rate constant (koff) was 0.021 s⁻¹. The binding result in the assay with FcγRI was “binds”.

B2: BB7.2 IgG1 (HLA-A2-specific chimeric mAb, unmodified / fucosylated) (antibody)
heavy: not shown
light: B1 light
notes: also called HLA-A2 IgG1 mAb; unmodified HLA-A2 mAb
In the case of B2, in assay [2], the off-rate constant (koff) was determined as 0.46 s⁻¹. In addition, the binding result with FcγRI is “binds”.

B3: afucosylated BB7.2 IgG3 (HLA-A2-specific chimeric mAb) (antibody)
heavy: QVQLQQSGPELVKPGASVKMSCKASGYTFTSYHIQWVKQRPGQGLEWIGWIYPGDGSTQYNEKFKGKTTLTADKSSSTAYMLLSSLTSEDSAIYFCAREGTYYAMDYWGQGTSVTVSSAKTTPPSVYPLAPGCGDTTGSSVTLGCLVKGYFPESVTVTWNSGSLSSSVHTFPALLQSGLYTMSSSVTVPSSTWPSQTVTCSVAHPASSTTVDKKLELKTPLGDTTHTCPRCPEPKSCDTPPPCPRCPEPKSCDTPPPCPRCPEPKSCDTPPPCPRCPAPELLGGPSVFLFPPKPKDTLMISRTPEVTCVVVDVSHEDPEVQFKWYVDGVEVHNAKTKPREEQYNSTFRVVSVLTVLHQDWLNGKEYKCKVSNKALPAPIEKTISKTKGQPREPQVYTLPPSREEMTKNQVSLTCLVKGFYPSDIAVEWESSGQPENNYNTTPPMLDSDGSFFLYSKLTVDKSRWQQGNIFSCSVMHEALHNRFTQKSLSLSPGK
light: B1 light
notes: also called afucosylated IgG3; afucosylated HLA-A2 mAb
As to B3, the koff in assay [1] is 0.021 s⁻¹. In addition, the binding result with FcγRI is given as “binds”.

B4: BB7.2 IgG3 (HLA-A2-specific chimeric mAb, unmodified / fucosylated) (antibody)
heavy: B3 heavy
light: B1 light
notes: also called HLA-A2 IgG3 mAb; unmodified HLA-A2 mAb
Regarding B4, in assay [2], the koff is 0.46 s⁻¹. The binding result with FcγRI is “binds”.
